In US20210403506A1 (XDCEXPLORER SHANGHAI, published 2021):
Numbered stars: 1 amine (or outer) side, 2 acyl side, 3 side chain; on linkers, the order of the positions; unused ones are H or OH. Square brackets hold non-standard residues; d marks the D form. Primed or numbered codes have the meaning given here. Ends that are not written are not given here. * marks the point of attachment. TP5C = (S)-4,5,6,7-tetrahydrothieno[2,3-c]pyridine-5-carboxylic acid, O=C([C@@H]1Cc2ccsc2CN1[*:1])[*:2]; TP6C = (S)-4,5,6,7-tetrahydrothieno[2,3-c]pyridine-6-carboxylic acid, O=C([C@@H]1Cc2ccsc2CN1[*:1])[*:2]; Bpa = N[C@@H](Cc1ccc(C(=O)c2ccccc2)cc1)C(=O)O; Pro(5R-Ph) = O=C(O)[C@@H]1CC[C@H](c2ccccc2)N1; 1Nal = N[C@@H](Cc1cccc2ccccc12)C(=O)O; 2Nal = N[C@@H](Cc1ccc2ccccc2c1)C(=O)O; dNMeY = CN[C@H](Cc1ccc(O)cc1)C(=O)O; Hydrocinnamoyl = O=C(CCc1ccccc1)*; 3‑phenylpropyl = c1ccc(CCC*)cc1; Tic = O=C(O)[C@@H]1Cc2ccccc2CN1; dTic = O=C(O)[C@H]1Cc2ccccc2CN1; NMeL = CN[C@@H](CC(C)C)C(=O)O; Pro(4Ph) = 4-phenylproline; NMeS = CN[C@@H](CO)C(=O)O; Nle = CCCC[C@H](N)C(=O)O; Thz = O=C(O)[C@@H]1CSCN1; dTi1c = not defined here; Aze = O=C(O)[C@@H]1CCN1; Nva = CCC[C@H](N)C(=O)O; Thz′ = not defined here

T1: human Chemokine like receptor 1 (human, UniProt Q99788 1-373)
T1 sequence (looked up): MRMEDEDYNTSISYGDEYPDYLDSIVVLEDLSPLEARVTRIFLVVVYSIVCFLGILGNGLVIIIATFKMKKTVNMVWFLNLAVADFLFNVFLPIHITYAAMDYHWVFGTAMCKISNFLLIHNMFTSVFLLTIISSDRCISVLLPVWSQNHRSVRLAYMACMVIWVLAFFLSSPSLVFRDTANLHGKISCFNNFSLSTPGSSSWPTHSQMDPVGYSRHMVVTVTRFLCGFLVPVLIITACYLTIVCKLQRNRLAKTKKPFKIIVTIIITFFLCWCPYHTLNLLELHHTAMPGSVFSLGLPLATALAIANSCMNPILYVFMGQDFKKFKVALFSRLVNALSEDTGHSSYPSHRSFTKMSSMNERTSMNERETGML

B1: YW-110 (peptide)
peptide: [dY]FLP[dS]QF[dA][Tic][NMeS]-OH
modifications: N-terminus assumed
SMILES: CC(C)C[C@H](NC(=O)[C@H](Cc1ccccc1)NC(=O)[C@H](N)Cc1ccc(O)cc1)C(=O)N1CCC[C@H]1C(=O)N[C@H](CO)C(=O)N[C@@H](CCC(N)=O)C(=O)N[C@@H](Cc1ccccc1)C(=O)N[C@H](C)C(=O)N1Cc2ccccc2C[C@H]1C(=O)N(C)[C@@H](CO)C(=O)O
B2: YW-112 (peptide)
peptide: [dY]FL[Pro(5R-Ph)][dS]QF[dA][Tic]S-OH
modifications: N-terminus assumed
SMILES: CC(C)C[C@H](NC(=O)[C@H](Cc1ccccc1)NC(=O)[C@H](N)Cc1ccc(O)cc1)C(=O)N1[C@@H](c2ccccc2)CC[C@H]1C(=O)N[C@H](CO)C(=O)N[C@@H](CCC(N)=O)C(=O)N[C@@H](Cc1ccccc1)C(=O)N[C@H](C)C(=O)N1Cc2ccccc2C[C@H]1C(=O)N[C@@H](CO)C(=O)O
B3: YW-114 (peptide)
peptide: [dY]FL[Thz][dS]QF[dA][Tic]S-OH
modifications: N-terminus assumed
SMILES: CC(C)C[C@H](NC(=O)[C@H](Cc1ccccc1)NC(=O)[C@H](N)Cc1ccc(O)cc1)C(=O)N1CSC[C@H]1C(=O)N[C@H](CO)C(=O)N[C@@H](CCC(N)=O)C(=O)N[C@@H](Cc1ccccc1)C(=O)N[C@H](C)C(=O)N1Cc2ccccc2C[C@H]1C(=O)N[C@@H](CO)C(=O)O
B4: YW-115 (peptide)
peptide: [dY]FL[Aze][dS]QF[dA][Tic]S-OH
modifications: N-terminus assumed
SMILES: CC(C)C[C@H](NC(=O)[C@H](Cc1ccccc1)NC(=O)[C@H](N)Cc1ccc(O)cc1)C(=O)N1CC[C@H]1C(=O)N[C@H](CO)C(=O)N[C@@H](CCC(N)=O)C(=O)N[C@@H](Cc1ccccc1)C(=O)N[C@H](C)C(=O)N1Cc2ccccc2C[C@H]1C(=O)N[C@@H](CO)C(=O)O
B5: YW-117 (peptide)
peptide: [dY]FLP[dS]Q[1Nal][dA][Tic]S-OH
modifications: N-terminus assumed
SMILES: CC(C)C[C@H](NC(=O)[C@H](Cc1ccccc1)NC(=O)[C@H](N)Cc1ccc(O)cc1)C(=O)N1CCC[C@H]1C(=O)N[C@H](CO)C(=O)N[C@@H](CCC(N)=O)C(=O)N[C@@H](Cc1cccc2ccccc12)C(=O)N[C@H](C)C(=O)N1Cc2ccccc2C[C@H]1C(=O)N[C@@H](CO)C(=O)O
B6: YW-118 (peptide)
peptide: [dY]FLP[dS]Q[2Nal][dA][Tic]S-OH
modifications: N-terminus assumed
SMILES: CC(C)C[C@H](NC(=O)[C@H](Cc1ccccc1)NC(=O)[C@H](N)Cc1ccc(O)cc1)C(=O)N1CCC[C@H]1C(=O)N[C@H](CO)C(=O)N[C@@H](CCC(N)=O)C(=O)N[C@@H](Cc1ccc2ccccc2c1)C(=O)N[C@H](C)C(=O)N1Cc2ccccc2C[C@H]1C(=O)N[C@@H](CO)C(=O)O
B7: YW-119 (peptide)
peptide: [dY]FLP[dS]Q[Bpa][dA][Tic]S-OH
modifications: N-terminus assumed
SMILES: CC(C)C[C@H](NC(=O)[C@H](Cc1ccccc1)NC(=O)[C@H](N)Cc1ccc(O)cc1)C(=O)N1CCC[C@H]1C(=O)N[C@H](CO)C(=O)N[C@@H](CCC(N)=O)C(=O)N[C@@H](Cc1ccc(C(=O)c2ccccc2)cc1)C(=O)N[C@H](C)C(=O)N1Cc2ccccc2C[C@H]1C(=O)N[C@@H](CO)C(=O)O
B8: YW-149 (peptide)
peptide: [dY]FLP[dS]QF[dA][dTic]S-OH
modifications: N-terminus assumed
SMILES: CC(C)C[C@H](NC(=O)[C@H](Cc1ccccc1)NC(=O)[C@H](N)Cc1ccc(O)cc1)C(=O)N1CCC[C@H]1C(=O)N[C@H](CO)C(=O)N[C@@H](CCC(N)=O)C(=O)N[C@@H](Cc1ccccc1)C(=O)N[C@H](C)C(=O)N1Cc2ccccc2C[C@@H]1C(=O)N[C@@H](CO)C(=O)O
B9: YW-151 (peptide)
peptide: [dY]FLP[dS]QF[dA][dTi1c]S-OH
modifications: reading uncertain; also: printed as (D-Tyr)-Phe-Leu-Pro-(D-Ser)-Gln-Phe-(D-Ala)-(D-Ti1c)-Ser
B10: YW-154 (peptide)
peptide: [dNMeY]FLP[dS]QF[dA][dTi1c]S-OH
modifications: reading uncertain; also: printed as (D-NMe-Tyr)-Phe-Leu-Pro-(D-Ser)-Gln-Phe-(D-Ala)-(D-Ti1c)-Ser
B11: YW-158 (peptide)
peptide: [dY]FLP[dS]QF[dA][TP5C]S-OH
modifications: N-terminus assumed
SMILES: CC(C)C[C@H](NC(=O)[C@H](Cc1ccccc1)NC(=O)[C@H](N)Cc1ccc(O)cc1)C(=O)N1CCC[C@H]1C(=O)N[C@H](CO)C(=O)N[C@@H](CCC(N)=O)C(=O)N[C@@H](Cc1ccccc1)C(=O)N[C@H](C)C(=O)N1Cc2sccc2C[C@H]1C(=O)N[C@@H](CO)C(=O)O
B12: YW-159 (peptide)
peptide: [dY]FLP[dS]QF[dA][TP6C]S-OH
modifications: N-terminus assumed
SMILES: CC(C)C[C@H](NC(=O)[C@H](Cc1ccccc1)NC(=O)[C@H](N)Cc1ccc(O)cc1)C(=O)N1CCC[C@H]1C(=O)N[C@H](CO)C(=O)N[C@@H](CCC(N)=O)C(=O)N[C@@H](Cc1ccccc1)C(=O)N[C@H](C)C(=O)N1Cc2sccc2C[C@H]1C(=O)N[C@@H](CO)C(=O)O
B13: YW-189 (peptide)
peptide: [dY]FLP[dS]QF[dA][Tic]S-NH2
modifications: N-terminus assumed
SMILES: CC(C)C[C@H](NC(=O)[C@H](Cc1ccccc1)NC(=O)[C@H](N)Cc1ccc(O)cc1)C(=O)N1CCC[C@H]1C(=O)N[C@H](CO)C(=O)N[C@@H](CCC(N)=O)C(=O)N[C@@H](Cc1ccccc1)C(=O)N[C@H](C)C(=O)N1Cc2ccccc2C[C@H]1C(=O)N[C@@H](CO)C(N)=O
B14: YW-71 (peptide)
peptide: Hydrocinnamoyl-[dY]FLP[dS]QF[dA][Tic]S-OH
SMILES: CC(C)C[C@H](NC(=O)[C@H](Cc1ccccc1)NC(=O)[C@@H](Cc1ccc(O)cc1)NC(=O)CCc1ccccc1)C(=O)N1CCC[C@H]1C(=O)N[C@H](CO)C(=O)N[C@@H](CCC(N)=O)C(=O)N[C@@H](Cc1ccccc1)C(=O)N[C@H](C)C(=O)N1Cc2ccccc2C[C@H]1C(=O)N[C@@H](CO)C(=O)O
B15: YW-74 (peptide)
peptide: {3‑phenylpropyl}-[dY]FLP[dS]QF[dA][Tic]S-OH
SMILES: CC(C)C[C@H](NC(=O)[C@H](Cc1ccccc1)NC(=O)[C@@H](Cc1ccc(O)cc1)NCCCc1ccccc1)C(=O)N1CCC[C@H]1C(=O)N[C@H](CO)C(=O)N[C@@H](CCC(N)=O)C(=O)N[C@@H](Cc1ccccc1)C(=O)N[C@H](C)C(=O)N1Cc2ccccc2C[C@H]1C(=O)N[C@@H](CO)C(=O)O

Target: T1, human Chemokine like receptor 1
Assay: cell-based or functional assay

Binder | EC50 (µM), activation of Tango CMKLR1-bla U2OS cells [µM]
B1 | 0.013
B2 | 0.17
[dY]FL[Pro(4Ph)][dS]QF[dA][Tic]S-OH [YW-113] | 0.0086
B3 | 0.005
B4 | 0.19
B5 | 0.0039
B6 | 0.0069
B7 | 0.0099
B8 | 0.021
[dNMeY]F[NMeL][Thz][dS]QF[dA][Tic]S [YW-123] | 0.001
[dY]FLP[dS]QF[dA][Ti1c]S-OH [YW-150] | 0.062
B9 | 0.027
B10 | 0.034
B11 | 0.065
B12 | 0.018
B13 | 0.0068
[dY]F[Nva]P[dS]QF[dA][Tic]S [YW-196] | 0.039
[dY]F[Nle]P[dS]QF[dA][Tic]S [YW-197] | 0.01
B14 | 0.031
phenethylcarbamoyl-[dY]FLP[dS]QF[dA][Tic]S-OH [YW-72] | 0.045
[dNMeY]F[NMeL][Thz′][dS]QF[dA][Tic][NMeS] (reading uncertain) [YW-124] | 0.0013
phenethylcarbamothioyl-[dY]FLP[dS]QF[dA][Tic]S-OH [YW-73] | 0.028
B15 | 0.0062
{4‑phenylbutanoyl}-[dY]FLP[dS]QF[dA][Tic]S-OH [YW-75] | 0.05
{5‑phenylpentanoyl}-[dY]FLP[dS]QF[dA][Tic]S-OH [YW-76] | 0.043
{4‑biphenylacetyl}-[dY]FLP[dS]QF[dA][Tic]S-OH [YW-77] | 0.053
